In PMC4334968:

Columns and labels:
[1] = molecular target: endogenous retromer (Vps26, Vps29, Vps35) (human (endogenous in HeLa and HaCaT)) (UniProt Q96QK1); assay: proximity ligation
[2] = molecular target: human retromer trimer assembled from Vps26, Vps29 and GST-tagged Vps35, Q96QK1;Q9UBQ0;O75436; assay: pull-down on immobilized purified retromer trimer, anti-His immunoblot quantified; details: read off a plot

Substance	percent decrease of the PLA signal against wild-type PsV at eight hours [1] [%]	ratio to parent ([2]; 5 µM MBP-L2, parent: est. 0.18)	ratio to parent ([2]; 10 µM MBP-L2, parent: est. 1.0)
HPV16 L2 double mutant (FYL/AAA and YYML/AAAA) with a carboxy-terminal 3xFLAG tag, in pseudovirus (from UniProt P03107 1-473) (natural protein)	70		
Maltose binding protein (MBP)-L2-6His fusion protein, wild-type HPV16 L2 amino acids 434-457 F446A; Y447A; L448A		0.2	0.28
Maltose binding protein (MBP)-L2-6His fusion protein, wild-type HPV16 L2 amino acids 434-457 F446A; Y447A; L448A; Y452A; Y453A; M454A; L455A		0.17	0.21
Maltose binding protein (MBP)-L2-6His fusion protein, wild-type HPV16 L2 amino acids 434-457 Y452A; Y453A; M454A; L455A		0.29	0.38
